Values quoted from earlier work, collected in paper PMC3321547 (Biochemistry, 2009).

System: DKH960
Settings: folded DKH960, ref [6]

B1: DKH960: folded kinesin heavy chain construct (protein, UniProt P17210 1-960, looked up, fragment)
chain: MSAEREIPAEDSIKVVCRFRPLNDSEEKAGSKFVVKFPNNVEENCISIAGKVYLFDKVFKPNASQEKVYNEAAKSIVTDVLAGYNGTIFAYGQTSSGKTHTMEGVIGDSVKQGIIPRIVNDIFNHIYAMEVNLEFHIKVSYYEIYMDKIRDLLDVSKVNLSVHEDKNRVPYVKGATERFVSSPEDVFEVIEEGKSNRHIAVTNMNEHSSRSHSVFLINVKQENLENQKKLSGKLYLVDLAGSEKVSKTGAEGTVLDEAKNINKSLSALGNVISALADGNKTHIPYRDSKLTRILQESLGGNARTTIVICCSPASFNESETKSTLDFGRRAKTVKNVVCVNEELTAEEWKRRYEKEKEKNARLKGKVEKLEIELARWRAGETVKAEEQINMEDLMEASTPNLEVEAAQTAAAEAALAAQRTALANMSASVAVNEQARLATECERLYQQLDDKDEEINQQSQYAEQLKEQVMEQEELIANARREYETLQSEMARIQQENESAKEEVKEVLQALEELAVNYDQKSQEIDNKNKDIDALNEELQQKQSVFNAASTELQQLKDMSSHQKKRITEMLTNLLRDLGEVGQAIAPGESSIDLKMSALAGTDASKVEEDFTMARLFISKMKTEAKNIAQRCSNMETQQADSNKKISEYEKDLGEYRLLISQHEARMKSLQESMREAENKKRTLEEQIDSLREECAKLKAAEHVSAVNAEEKQRAEELRSMFDSQMDELREAHTRQVSELRDEIAAKQHEMDEMKDVHQKLLLAHQQMTADYEKVRQEDAEKSSELQNIILTNERREQARKDLKGLEDTVAKELQTLHNLRKLFVQDLQQRIRKNVVNEESEEDGGSLAQKQKISFLENNLDQLTKVHKQLVRDNADLRCELPKLEKRLRCTMERVKALETALKEAKEGAMRDRKRYQYEVDRIKEAVRQKHLGRRGPQAQIAKPIRSGQGAIAIRGGGA
maximum extent of inhibition of ADP release: over 50%
